Experimental data published in patent EP4814012A1 (The United Bio-Technology (Hengqin) Co., Ltd., dated 2026).

Experiments:
[1] = target: T1, human IL-4Rα on cells (human, UniProt P24394 26-825); assay: cell-based or functional assay
[2] = target: T1, human IL-4Rα on cells; assay: cell-based or functional assay; remark: listed apart in the source
[3] = target: T1, human IL-4Rα on cells; assay: cell-based or functional assay; remark: listed apart in the source
[4] = target: T1, human IL-4Rα on cells; assay: cell-based or functional assay; remark: listed apart in the source
[5] = target: T2, hIL-4Rα.ECD (human, UniProt P24394 26-232); assay: SPR (Biacore 8K), antibody captured, hIL-4Rα.ECD analyte, 25°C
T2 construct: extracellular domain; also called hIL-4Rα protein

[6] = target: T2, hIL-4Rα.ECD; assay: SPR, antibody captured by anti-human Fc on CM5, hIL-4Rα.ECD analyte
[7] = target: T2, hIL-4Rα.ECD; assay: SPR (Biacore 8K), method same as 1.9, hIL-4Rα.ECD analyte
[8] = target: T1, human IL-4Rα on cells; assay: cell-based or functional assay; remark: listed apart in the source
[9] = target: T1, human IL-4Rα on cells; assay: flow cytometry on CHO-K1 cells overexpressing hIL-4Rα
[10] = target: T3, hTSLP (human, UniProt Q969D9 29-159); assay: cell-based or functional assay
[11] = target: T3, hTSLP; assay: SPR (Biacore 8K), antibody captured, hTSLP analyte, 25°C
[12] = target: T2, hIL-4Rα.ECD; assay: SPR (Biacore 8K), antibody captured by anti-mouse Fc, hIL-4Rα.ECD analyte, 25°C

| Binder | IC50(pM), hIL-4 Blocking Activity by Reporter Gene Assay [1] [pM] | IC50(pM), hIL-13 Blocking Activity, TF-1 proliferation inhibition assay [2] [pM] | IC50 (pM), hIL-13 inhibitory activity, reporter gene assay (HEK-293T.STAT6-GFP cells) [4] [pM] | Kd [5] [nM] | koff [5] [s⁻¹] | kon [5] [M⁻¹ s⁻¹] | Kd [6] [nM] | koff [6] [s⁻¹] | kon [6] [M⁻¹ s⁻¹] | IC50 (nM), Cell-based Assay Data (hIL-13), STAT6-GFP reporter gene assay [8] [nM] | EC50 [9] [nM] | other results |
| --- | --- | --- | --- | --- | --- | --- | --- | --- | --- | --- | --- | --- |
| m8 (antibody, human IgG4 S228P, kappa, V domains shown, also called m8 molecule; anti-IL-4R antibody m8) VH: QVQLVQSGAEVKKPGASVKVSCKASGYTFTTYYIYWVRQAPGQGLEWMGGSNPSTGGTLDNEKFKTRVTMTVDKSTSTAYMELSSLRSEDTAVYYCTRSGRYAPFTYWGQGTLVTVSS VL: DIQMTQSPSSLSASVGDRVTITCKASQDVSTSVAWYQQKPGKAPKLLIYSASYRFTGVPSRFSGSGSGTDFTFTISSLQPEDFATYYCQHYSTTPFTFGQGTKLEIKR | 16.4 | 125 | 80 | 0.0489 | 1.39e-05 | 285000 | 0.0437 | 3.95e-05 | 903000 | – | – | IC50(pM), hIL-4 inhibitory activity, reporter gene assay (HEK-293T.STAT6-GFP cells) [3]: 210 pM |
| 1.34.4-z18 (antibody, human IgG4, V domains shown, Humanized with back-mutations; also called 1.34.4-z18 humanized antibody molecule) VH: QVQLVQSGAEVKKPGASVKVSCKASGYTFTTYYIYWVRQAPGQGLEWMGGSNPSTGGTLFNEKFKTRVTMTVDKSTSTAYMELSSLRSEDTAVYYCTRSGRYAPFTYWGQGTLVTVSS VL: DIQMTQSPSSLSASVGDRVTITCKASQDVSTSVAWYQQKPGKAPKLLIYSASYRFTGVPSRFSGSGSGTDFTFTISSLQPEDFATYYCQQYSTTPFTFGQGTKLEIK | – | – | – | – | – | – | – | – | – | – | – | Kd [7]: 0.567 nM; koff [7]: 0.000137 s⁻¹; kon [7]: 242000 M⁻¹ s⁻¹ |
| 1.34.4 (humanized, CDR-grafted) (antibody, V domains shown) VH: QVQLVQSGAEVKKPGASVKVSCKASGYTFTTYYIYWVRQAPGQGLEWMGGSNPSTGGTLFNEKFKTRVTMTRDTSTSTVYMELSSLRSEDTAVYYCARSGRYAPFTYWGQGTLVTVSS VL: DIQMTQSPSSLSASVGDRVTITCKASQDVSTSVAWYQQKPGKAPKLLIYSASYRFTGVPSRFSGSGSGTDFTLTISSLQPEDFATYYCQQYSTTPFTFGQGTKLEIK | – | – | – | – | – | – | – | – | – | – | – | Kd [7]: 0.512 nM; koff [7]: 0.0001 s⁻¹; kon [7]: 196000 M⁻¹ s⁻¹ |
| m21 (antibody, V domains shown, captured by anti-human Fc); also called m21 molecule) VH: QVQLVQSGAEVKKPGASVKVSCKASGYTFTTYYIYWVRQAPGQGLEWMGGSNPSTGGTLENEKFKTRVTMTVDKSTSTAYMELSSLRSEDTAVYYCTRSGRYAPFTYWGQGTLVTVSS VL: DIQMTQSPSSLSASVGDRVTITCKASQDVSTSVAWYQQKPGKAPKLLIYSASYRFTGVPSRFSGSGSGTDFTFTISSLQPEDFATYYCVHYSTTPFTFGQGTKLEIK | 286 | 66.5 | – | – | – | – | 0.133 | 7.76e-05 | 582000 | – | – | – |
| m27 (antibody, V domains shown, captured by anti-human Fc); also called m27 molecule) VH: QVQLVQSGAEVKKPGASVKVSCKASGYTFTTYYIYWVRQAPGQGLEWMGGSNPSTGGTLENEKFKTRVTMTVDKSTSTAYMELSSLRSEDTAVYYCTRSGRYATFTYWGQGTLVTVSS VL: DIQMTQSPSSLSASVGDRVTITCKASQDVSTSVAWYQQKPGKAPKLLIYSASYRFTGVPSRFSGSGSGTDFTFTISSLQPEDFATYYCVHYSTTPFTFGQGTKLEIK | 249 | 58.8 | – | – | – | – | 0.196 | 0.000112 | 568000 | – | – | – |
| Dupilumab (antibody, V domains shown) VH: EVQLVESGGGLEQPGGSLRLSCAGSGFTFRDYAMTWVRQAPGKGLEWVSSISGSGGNTYYADSVKGRFTISRDNSKNTLYLQMNSLRAEDTAVYYCAKDRLSITIRPRYYGLDVWGQGTTVTVSS VL: DIVMTQSPLSLPVTPGEPASISCRSSQSLLYSIGYNYLDWYLQKSGQSPQLLIYLGSNRASGVPDRFSGSGSGTDFTLKISRVEAEDVGFYYCMQALQTPYTFGQGTKLEIKR | 201 | 140 | 41 | 0.0616 | 5.7e-05 | 924000 | 0.0379 | 5.4e-05 | 1.43e+06 | 0.81 | 0.3 | – |
| MTM (bispecific antibody, human IgG2, lambda, the junction should be checked against them; also called MTM bispecific antibody; MTM molecule) heavy: QMQLVESGGGVVQPGRSLRLSCAASGFTFRTYGMHWVRQAPGKGLEWVAVIWYDGSNKHYADSVKGRFTITRDNSKNTLNLQMNSLRAEDTAVYYCARAPQWELVHEAFDIWGQGTMVTVSSASTKGPSVFPLAPCSRSTSESTAALGCLVKDYFPEPVTVSWNSGALTSGVHTFPAVLQSSGLYSLSSVVTVPSSNFGTQTYTCNVDHKPSNTKVDKTVERKCCVECPPCPAPPVAGPSVFLFPPKPKDTLMISRTPEVTCVVVDVSHEDPEVQFNWYVDGVEVHNAKTKPREEQFNSTFRVVSVLTVVHQDWLNGKEYKCKVSNKGLPAPIEKTISKTKGQPREPQVYTLPPSREEMTKNQVSLTCLVKGFYPSDIAVEWESNGQPENNYKTTPPMLDSDGSFFLYSKLTVDKSRWQQGNVFSCSVMHEALHNHYTQKSLSLSPGKGGGGSGGGGSQVQLVQSGAEVKKPGASVKVSCKASGYTFTTYYIYWVRQAPGQCLEWMGGSNPSTGGTLDNEKFKTRVTMTVDKSTSTAYMELSSLRSEDTAVYYCTRSGRYAPFTYWGCGTLVTVSSGGGGSGGGGSGGGGSGGGGSDIQMTQSPSSLSASVGDRVTITCKASQDVSTSVAWYQQKPGKAPKLLIYSASYRFTGVPSRFSGSGSGTDFTFTISSLQPEDFATYYCQHYSTTPFTFGCGTKLEIK light: SYVLTQPPSVSVAPGQTARITCGGNNLGSKSVHWYQQKPGQAPVLVVYDDSDRPSWIPERFSGSNSGNTATLTISRGEAGDEADYYCQVWDSSSDHVVFGGGTKLTVLGQPKAAPSVTLFPPSSEELQANKATLVCLISDFYPGAVTVAWKADSSPVKAGVETTTPSKQSNNKYAASSYLSLTPEQWKSHRSYSCQVTHEGSTVEKTVAPTECS | – | – | 66.5 | 0.0659 | 3.48e-05 | 528000 | – | – | – | – | – | IC50(pM), hIL-4 inhibitory activity, reporter gene assay (HEK-293T.STAT6-GFP cells) [3]: 170 pM; IC50 (nM), hTSLP inhibitory activity, reporter gene assay (HEK-293T-hTSLPR-IL7Ra-STAT5-Luciferase cells) [10]: 0.14 nM; Kd [11]: 0.00296 nM; koff [11]: 3.5e-05 s⁻¹; kon [11]: 1.18e+07 M⁻¹ s⁻¹ |
| MMT (bispecific antibody, human IgG4 S228P, kappa, the junction should be checked against them; also called MMT bispecific antibody; MMT molecule) heavy: not shown light: DIQMTQSPSSLSASVGDRVTITCKASQDVSTSVAWYQQKPGKAPKLLIYSASYRFTGVPSRFSGSGSGTDFTFTISSLQPEDFATYYCQHYSTTPFTFGQGTKLEIKRTVAAPSVFIFPPSDEQLKSGTASVVCLLNNFYPREAKVQWKVDNALQSGNSQESVTEQDSKDSTYSLSSTLTLSKADYEKHKVYACEVTHQGLSSPVTKSFNRGEC | – | – | 133 | 0.0598 | 4.35e-05 | 727000 | – | – | – | – | – | IC50 (nM), hTSLP inhibitory activity, reporter gene assay (HEK-293T-hTSLPR-IL7Ra-STAT5-Luciferase cells) [10]: 0.3 nM; Kd [11]: 0.0188 nM; koff [11]: 5.88e-05 s⁻¹; kon [11]: 3.14e+06 M⁻¹ s⁻¹ |
| 1.34.4-Murine (antibody, V domains shown, See recheck) VH: QVQLQQPGAELVKPGASMKLSCKASGYTFTTYYIYWVKQRPGQGLEWIGGSNPSTGGTLFNEKFKTKATLTVDKYSSTAYMELSSLTFEDSAVYFCTRSGRYAPFTYWGQGTLVTVSA VL: DIVMTQSHKVLSTSVGDRVIITCKASQDVSTSVAWYQQRPGHSPKLLIYSASYRFTGVPDRFTGSGSGTDFTFTISSVQAEDLAVYNCQQYSTTPFTFGSGTKLEIK | – | – | – | – | – | – | – | – | – | 1.38 | 0.35 | Kd [12]: 0.369 nM; koff [12]: 0.000133 s⁻¹; kon [12]: 361000 M⁻¹ s⁻¹ |
| 2.46.13-Murine (antibody, V domains shown, See recheck) VH: DVKLVESGGGLVKLGGSLKLSCAASGFTFSSYYMSWVRQTPEKRLELVAAINSNGGSTYSPDTVKGRFTISRDNAKNTLYLQMSSLKSEDTALYYCARRSLLGNHRDWYFDVWGAGTTVTVSS VL: DIQMTQSPASLSASVGETVTITCRASENIYSYLAWYQQKQGKSPQLLVYNAKTLADGVPSRFSGSGSGTQFSLKINTLQPEDFGSYYCLHHYGTPLTFGAGTKLELK | – | – | – | – | – | – | – | – | – | 2.23 | 0.28 | Kd [12]: 0.306 nM; koff [12]: 0.000118 s⁻¹; kon [12]: 385000 M⁻¹ s⁻¹ |
